Data from article PMC6181439 (2018).

B1: scPOM2 (scFv, V domains shown)
VH: VKLQESGGEVVRPGTSVKVSCKASGYAFTNYLIEWVKQRPGQGLEWIGVINPGSGDTNYNEKFKGKATLTADKSSSTAYMQLNSLTSDDSAVYFCARSGAAAPTYYAMDYWGQGVSVTVSS
VL: DIVMTQSHKFMSTSVGDRVSITCKASQVGTALAWYQQKPGQSPKLLIYWASTRHTGVPDRFTGSGSGTDFTLTISNVQSEDLSDYFCQQYSSYPTFGGGTKLEIK
B2: Full IgG POM2 monoclonal antibody (antibody, V domains shown)
VH: B1 VH
VL: B1 VL

Experiments:
[1] = target: T1, Recombinant mouse PrP full length (23-230) (mouse, UniProt P04925 23-230); experiment: SPR
T1 sequence (P04925 23-230): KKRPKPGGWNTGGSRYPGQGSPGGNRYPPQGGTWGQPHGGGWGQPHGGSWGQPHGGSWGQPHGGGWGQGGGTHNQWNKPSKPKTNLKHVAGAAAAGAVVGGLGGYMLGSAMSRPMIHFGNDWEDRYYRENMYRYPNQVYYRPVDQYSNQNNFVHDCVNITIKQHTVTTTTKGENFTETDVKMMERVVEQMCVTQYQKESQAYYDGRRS

[2] = target: T1, Recombinant mouse PrP full length …; experiment: SPR; remark: listed apart in the source

| Binder | Kd [1] [nM] | koff [2] [s⁻¹] |
| --- | --- | --- |
| B1 | 23 | 0.00036 |
| B2 | 0.1 | 9.5e-06 |
